Biological target: EEEV PE6 virus-like particle (Eastern equine encephalitis virus, strain PE6)
Test: BLI

Substance | Kd [nM]
ApoER2_(iso2) LA1-3-Fc (Fc fusion) | 705
S. vulgaris VLDLR LA1-8-Fc (Fc fusion) | 11
VLDLR LA1-2-Fc (from UniProt P98155-1 28-113) (Fc fusion) | 505
VLDLR LA1-3-Fc (from UniProt P98155-1 28-152) (Fc fusion) | 363
VLDLR LA2-3-Fc (from UniProt P98155-1 70-151) (Fc fusion) | 1800
VLDLR LA2-4-Fc (from UniProt P98155-1 70-190) (Fc fusion) | 1100
VLDLR LA2-5-Fc (from UniProt P98155-1 70-231) (Fc fusion) | 42.5
VLDLR LA3-4-Fc (from UniProt P98155-1 111-190) (Fc fusion) | 3900
VLDLR LA3-5-Fc (from UniProt P98155-1 111-236) (Fc fusion) | 32.3
VLDLR LA3-6-Fc (from UniProt P98155-1 111-276) (Fc fusion) | 71.5
VLDLR LA4-5-Fc (from UniProt P98155-1 152-236) (Fc fusion) | 11900
VLDLR LA4-6-Fc (from UniProt P98155-1 152-275) (Fc fusion) | 2300
VLDLR LA5-6-Fc (from UniProt P98155-1 191-275) (Fc fusion) | 4200

Source: article PMC11316819
